Laboratory results published in IntAct's records for PubMed 18423204.

B1: Catenin beta-1 (Mus musculus), Q02248 (parent)
chain: MATQADLMELDMAMEPDRKAAVSHWQQQSYLDSGIHSGATTTAPSLSGKGNPEEEDVDTSQVLYEWEQGFSQSFTQEQVADIDGQYAMTRAQRVRAAMFPETLDEGMQIPSTQFDAAHPTNVQRLAEPSQMLKHAVVNLINYQDDAELATRAIPELTKLLNDEDQVVVNKAAVMVHQLSKKEASRHAIMRSPQMVSAIVRTMQNTNDVETARCTAGTLHNLSHHREGLLAIFKSGGIPALVKMLGSPVDSVLFYAITTLHNLLLHQEGAKMAVRLAGGLQKMVALLNKTNVKFLAITTDCLQILAYGNQESKLIILASGGPQALVNIMRTYTYEKLLWTTSRVLKVLSVCSSNKPAIVEAGGMQALGLHLTDPSQRLVQNCLWTLRNLSDAATKQEGMEGLLGTLVQLLGSDDINVVTCAAGILSNLTCNNYKNKMMVCQVGGIEALVRTVLRAGDREDITEPAICALRHLTSRHQEAEMAQNAVRLHYGLPVVVKLLHPPSHWPLIKATVGLIRNLALCPANHAPLREQGAIPRLVQLLVRAHQDTQRRTSMGGTQQQFVEGVRMEEIVEGCTGALHILARDVHNRIVIRGLNTIPLFVQLLYSPIENIQRVAAGVLCELAQDKEAAEAIEAEGATAPLTELLHSRNEGVATYAAAVLFRMSEDKPQDYKKRLSVELTSSLFRTEPMAWNETADLGLDIGAQGEALGYRQDDPSYRSFHSGGYGQDALGMDPMMEHEMGGHHPGADYPVDGLPDLGHAQDLMDGLPPGDSNQLAWFDTDL

Variants of: B1
Settings: with MAPK9, P45984-1

| effect of a mutation on the interaction | Variant |
| --- | --- |
| decreasing interaction | S605A |
| disrupting interaction | S191A |
| decreasing interaction | S246A |
| disrupting interaction | S191A;S246A;S605A |
